In the supplement of paper PMC10126150:
± gives the standard deviation of the averaged measurements.

Tested on: ATP
Experiment: switch fluorescence ratio, 500 uM ATP over buffer (Cy3 cluster intensity, sum of 5 cycles each) (fold (ratio)); higher = stronger signal-on switching upon ATP binding; sequences stand for … in TCGTCGGCAGCGTCAGATGTGTATAAGAGACAGTTTTTTTTTTTTTTTTTTTTTTTTT…TC
Conditions: aptamer strand: ATP DNA aptamer (quencher-CACCTGGGGGAGTATTGCGGAGGAAGG + anchor), 100 nM annealed; ATP concentration: 500 uM
Outline: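 Values give the fluorescence ratio for each switch-domain sequence, averaged from per-cluster ratios of summed target-cycle to summed buffer-cycle Cy3 intensity. The Cy3-labelled switching-strand clusters sat on a modified Illumina MiSeq flow-cell, were annealed to 100 nM quencher-labelled ATP aptamer, and were imaged in selection buffer, then after 15 min with 500 uM ATP at 22 °C. Five cycles ran with NaOH stripping and re-annealing between them, and clusters outside 100-1000 RFU were excluded.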
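Note: ATP exposure 15 min at 22 °C before imaging.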

| Sequence | switch fluorescence ratio |
| --- | --- |
| GTTTAGGCCC | 1 ± 0.041 |
| GTTTATGCCA | 0.997 ± 0.029 |
| GTTTATGTGG | 0.981 ± 0.025 |
| GTTTATTGTC | 1.04 ± 0.037 |
| GTTTCAAGAG | 1.03 ± 0.012 |
| GTTTCAAGCG | 1.02 ± 0.025 |
| GTTTCAGGCT | 0.9888 ± 0.0041 |
| GTTTCGAGTA | 0.957 ± 0.049 |
| GTTTCGGGCT | 1.01 ± 0.012 |
| GTTTCGGGTT | 0.986 ± 0.019 |
| GTTTCGGTGG | 0.986 ± 0.085 |
| GTTTCGTGGG | 0.976 ± 0.031 |
| GTTTCGTTTC | 1.01 ± 0.025 |
| GTTTCTATGG | 0.9961 ± 0.0085 |
| GTTTCTGGCC | 0.98 ± 0.019 |
| GTTTCTGGGG | 0.971 ± 0.052 |
| GTTTGAAAGT | 0.957 ± 0.01 |
| GTTTGAAATT | 1.03 ± 0.09 |
| GTTTGAAGCC | 1.04 ± 0.078 |
| GTTTGAAGCG | 1 ± 0.054 |
| GTTTGAAGGG | 0.974 ± 0.05 |
| GTTTGAAGGT | 1.01 ± 0.011 |
| GTTTGAATGT | 0.97301 ± 0.0004 |

| Sequence | switch fluorescence ratio |
| --- | --- |
| GTTTGATGGG | 0.981 ± 0.033 |
| GTTTGCCATG | 0.998 ± 0.047 |
| GTTTGCCTCC | 1.03 ± 0.021 |
| GTTTGCGTTG | 0.979 ± 0.042 |
| GTTTGCTACG | 1.005 ± 0.004 |
| GTTTGCTGTT | 0.9931 ± 0.0089 |
| GTTTGGCCAT | 1.02 ± 0.02 |
| GTTTGGGAGG | 0.963 ± 0.01 |
| GTTTGGGGAT | 0.972 ± 0.022 |
| GTTTGGGTCT | 0.997 ± 0.013 |
| GTTTGGTTAT | 0.995 ± 0.012 |
| GTTTGTATAG | 1 ± 0.03 |
| GTTTGTATTA | 0.996 ± 0.011 |
| GTTTGTATTT | 1 ± 0.017 |
| GTTTGTGAAT | 0.9814 ± 0.0086 |
| GTTTGTGCAT | 1.025 ± 0.0083 |
| GTTTGTGGCG | 0.959 ± 0.024 |
| GTTTGTTGTT | 0.9819 ± 0.0016 |
| GTTTGTTTGG | 0.974 ± 0.023 |
| GTTTTAAATG | 0.975 ± 0.016 |
| GTTTTAATTT | 0.988 ± 0.019 |
| GTTTTACCGG | 1 ± 0.022 |
| GTTTTACGGA | 1.003 ± 0.0065 |

| Sequence | switch fluorescence ratio |
| --- | --- |
| GTTTTATGGG | 0.969 ± 0.038 |
| GTTTTCAACA | 0.98916 ± 0.00045 |
| GTTTTCCACA | 0.987 ± 0.067 |
| GTTTTCGACT | 1.04 ± 0.0095 |
| GTTTTCGAGC | 1.11 ± 0.043 |
| GTTTTCGTGG | 0.995 ± 0.021 |
| GTTTTGAATT | 1 ± 0.04 |
| GTTTTGAGTT | 1 ± 0.021 |
| GTTTTGATTA | 0.973 ± 0.017 |
| GTTTTGGGAC | 0.993 ± 0.027 |
| GTTTTGGTCC | 0.997 ± 0.012 |
| GTTTTGTGGG | 0.968 ± 0.034 |
| GTTTTGTTTG | 0.9553 ± 0.0016 |
| GTTTTTAAGG | 1.02 ± 0.032 |
| GTTTTTCCAT | 1 ± 0.024 |
| GTTTTTCCTG | 0.981 ± 0.055 |
| GTTTTTCTTC | 0.9923 ± 0.0058 |
| GTTTTTGCGG | 0.9784 ± 0.0044 |
| GTTTTTGGTT | 1 ± 0.028 |
| GTTTTTGTGT | 0.987 ± 0.025 |
| GTTTTTTTAT | 0.987 ± 0.02 |
| GTTTTTTTGC | 0.9766 ± 0.006 |
| GTTTTTTTTG | 0.999 ± 0.029 |

| Sequence | switch fluorescence ratio |
| --- | --- |
| TAAAAAAAAT | 1.02 ± 0.033 |
| TAAAAAAAGA | 0.999 ± 0.046 |
| TAAAAAAAGC | 1.031 ± 0.0015 |
| TAAAAAAGAA | 0.97 ± 0.03 |
| TAAAAAATTC | 1.03 ± 0.04 |
| TAAAAAGACC | 0.976 ± 0.035 |
| TAAAAAGCAT | 1.007 ± 0.0031 |
| TAAAAAGCGG | 1.01 ± 0.054 |
| TAAAAATTCA | 1.009 ± 0.0021 |
| TAAAAATTGC | 1.02 ± 0.048 |
| TAAAACGATC | 0.966 ± 0.036 |
| TAAAACGGTG | 1.05 ± 0.029 |
| TAAAACTTGG | 0.999 ± 0.065 |
| TAAAACTTTT | 1.02 ± 0.043 |
| TAAAAGAACT | 1.03 ± 0.038 |
| TAAAAGATCG | 1.03 ± 0.034 |
| TAAAAGCAAT | 2.1 ± 0.9 |
| TAAAAGCTAA | 1 ± 0.031 |
| TAAAAGGGAA | 1.01 ± 0.024 |
| TAAAAGGGAC | 1.01 ± 0.028 |
| TAAAAGGTCC | 1.04 ± 0.038 |
| TAAAAGTCTA | 0.9999 ± 0.0094 |
| TAAAATACGT | 0.995 ± 0.042 |

| Sequence | switch fluorescence ratio |
| --- | --- |
| TAAAATATTA | 1.03 ± 0.02 |
| TAAAATGGGT | 0.996 ± 0.03 |
| TAAAATTAGT | 0.9938 ± 0.0073 |
| TAAAATTATG | 0.974 ± 0.019 |
| TAAAATTCGA | 0.9784 ± 0.0059 |
| TAAAATTGGT | 0.983 ± 0.027 |
| TAAAATTTTA | 0.988 ± 0.023 |
| TAAACAGCTG | 0.955 ± 0.043 |
| TAAACATCAC | 1.164 ± 0.011 |
| TAAACGCTGG | 0.999 ± 0.014 |
| TAAACTTG | 1.04 ± 0.086 |
| TAAACTTGAC | 1.16 ± 0.1 |
| TAAAGAAACT | 1.28 ± 0.35 |
| TAAAGAAAGA | 1.1 ± 0.23 |
| TAAAGAACAT | 0.997 ± 0.057 |
| TAAAGAAGTG | 1.01 ± 0.033 |
| TAAAGAGTGT | 1.01 ± 0.0042 |
| TAAAGATAAG | 0.98 ± 0.024 |
| TAAAGCAGTA | 0.995 ± 0.018 |
| TAAAGCGTTT | 1.12 ± 0.27 |
| TAAAGCTGCT | 0.9705 ± 0.0071 |
| TAAAGGAAGT | 0.983 ± 0.04 |
| TAAAGGAATT | 1.05 ± 0.03 |

| Sequence | switch fluorescence ratio |
| --- | --- |
| TAAAGGCCGT | 1.01 ± 0.018 |
| TAAAGGGAAT | 1.02 ± 0.056 |
| TAAAGGGATG | 0.956 ± 0.017 |
| TAAAGGGGAA | 1.01 ± 0.047 |
| TAAAGGGGCA | 1 ± 0.028 |
| TAAAGGGGTT | 0.986 ± 0.035 |
| TAAAGGTAGT | 1 ± 0.032 |
| TAAAGGTCTT | 1.01 ± 0.016 |
| TAAAGGTGAA | 1.077 ± 0.0066 |
| TAAAGTAGTT | 1.01 ± 0.044 |
| TAAAGTGGCT | 0.985 ± 0.03 |
| TAAAGTTTAG | 1.02 ± 0.015 |
| TAAATAATCG | 0.968 ± 0.038 |
| TAAATAATTG | 1.008 ± 0.0069 |
| TAAATAATTT | 1.01 ± 0.028 |
| TAAATAGTGG | 0.987 ± 0.013 |
| TAAATATGTG | 0.986 ± 0.021 |
| TAAATGGCCA | 0.9798 ± 0.0051 |
| TAAATGGCGT | 1.01 ± 0.033 |
| TAAATTAGCC | 1.03 ± 0.014 |
| TAAATTATGT | 0.9816 ± 0.0076 |
| TAAATTATTG | 0.9768 ± 0.0079 |
| TAAATTGATA | 0.9924 ± 0.0055 |

| Sequence | switch fluorescence ratio |
| --- | --- |
| TAAATTGATG | 1.036 ± 0.0049 |
| TAAATTTAAG | 1 ± 0.027 |
| TAAATTTTAG | 1.007 ± 0.0026 |
| TAAATTTTAT | 1.012 ± 0.0058 |
| TAAATTTTTC | 1.042 ± 0.008 |
| TAACAATATT | 0.99495 ± 0.00094 |
| TAACAATTAA | 1.03 ± 0.058 |
| TAACAATTGT | 1.12 ± 0.18 |
| TAACAGAGTG | 1 ± 0.023 |
| TAACAGGAAT | 0.966 ± 0.042 |
| TAACAGGCGG | 0.991 ± 0.028 |
| TAACAGGTAG | 1.05 ± 0.035 |
| TAACAGGTAT | 1 ± 0.046 |
| TAACATGGCC | 1 ± 0.022 |
| TAACCACCTT | 1.12 ± 0.044 |
| TAACCAGTTA | 1.04 ± 0.019 |
| TAACCCGGGC | 1.03 ± 0.066 |
| TAACCTACCG | 1.41 ± 0.037 |
| TAACGAACGC | 1.65 ± 0.086 |
